Data reported in patent publication US7332473B2, “Peptides and medicinal compositions containing the same” (priority 2002, dated 2008).
Square brackets hold non-standard residues; d marks the D form. Ends that are not written are not given here. Met(O) = CS(=O)CC[C@H](N)C(=O)O

Tests used:
[1] = Helical content from circular dichroism spectra; type: physicochemical; conditions: 20 mM Tris-HCl buffer (pH 7.4), calculation by Greenfield et al.
Description: VIP (peptide 1, SEQ ID NO: 2), peptide 7 (SEQ ID NO: 8) corresponding to 25 residues at the N-terminus of VIP, and peptide 8 (SEQ ID NO: 9), which is a peptide 7 derivative with its methionine-17 being oxidized, were dissolved in a 20 mM Tris-HCl buffer (pH 7.4), and the circular dichroism spectra thereof were examined using the Jasco J-720 (Jasco Corporation). According to analytical calculation of higher-order structure by Greenfield et al., the helical content of peptide 1 was about 50% (FIG. 2).

[2] = test system: murine gastric smooth muscles; assay: Inhibition of carbachol-induced constriction of murine gastric smooth muscle (Magnus apparatus); parameters: species or system ICR mice; conditions: final concentration 10^−6 M, peptide 1 = 100%

His-Ser-Asp-Ala-Val-Phe-Thr-Asp-Asn-Tyr-Thr-Arg-Leu-Arg-Lys-Gln-Met(O)-Ala-Val-Lys-Lys-Tyr-Leu-Asn-Ser-NH2 (HSDAVFTDNYTRLRKQ[Met(O)]AVKKYLNS-NH2; N-terminus assumed; SMILES CC(C)C[C@H](NC(=O)[C@H](Cc1ccc(O)cc1)NC(=O)[C@H](CCCCN)NC(=O)[C@H](CCCCN)NC(=O)[C@@H](NC(=O)[C@H](C)NC(=O)[C@H](CCS(C)=O)NC(=O)[C@H](CCC(N)=O)NC(=O)[C@H](CCCCN)NC(=O)[C@H](CCCNC(=N)N)NC(=O)[C@H](CC(C)C)NC(=O)[C@H](CCCNC(=N)N)NC(=O)[C@@H](NC(=O)[C@H](Cc1ccc(O)cc1)NC(=O)[C@H](CC(N)=O)NC(=O)[C@H](CC(=O)O)NC(=O)[C@@H](NC(=O)[C@H](Cc1ccccc1)NC(=O)[C@@H](NC(=O)[C@H](C)NC(=O)[C@H](CC(=O)O)NC(=O)[C@H](CO)NC(=O)[C@@H](N)Cc1c[nH]cn1)C(C)C)[C@@H](C)O)[C@@H](C)O)C(C)C)C(=O)N[C@@H](CC(N)=O)C(=O)N[C@@H](CO)C(N)=O) [Peptide 8]
helical content [1]: reduced to about half that of peptide 1
maximal inhibition of murine gastric smooth muscle constriction (activity, in words) [2]: significantly attenuated compared to that of peptide 7
